Target: T1, SrbA bHLHZ (Aspergillus fumigatus, UniProt Q4WIN1 161-267)
T1 sequence: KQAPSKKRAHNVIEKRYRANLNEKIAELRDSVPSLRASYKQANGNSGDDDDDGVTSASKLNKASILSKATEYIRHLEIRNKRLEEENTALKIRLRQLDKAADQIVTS
Test: SPR; apparent Kd; Rmax 197.6, two homodimers proposed; SPR on immobilised biotinylated duplexes, 1:1 model with mass transport; buffer, salt, pH and temperature not stated (protocols of refs 19, 54)
Conditions: protein: recombinant; chain copies: 2; label: 5' biotin on strand 1; blunt

B1: SRE1+SRE2 (cyp51Ap-320-32) (dsDNA)
DNA 1: AGAATCACGCGGTCCGGATGTGTGCTGAGCCG
DNA 2: CGGCTCAGCACACATCCGGACCGCGTGATTCT
- Kd: 22 nM

— publication PMC4954732, “Sterol Biosynthesis and Azole Tolerance Is Governed by the Opposing Actions of SrbA and the CCAAT Binding Complex”
